Measurements as given in PMC7039436.

Target: mono-ubiquitinated human FANCD2 (ubiquitin on Lysine 561) (human) (UniProt Q9BXW9)
Assay: biotin affinity purification with 3C protease elution; in vitro ubiquitination reaction with Avi-ubiquitin loaded on avidin agarose, 2 hrs 4 °C, washed with 10 CV 50 mM Tris-HCl pH 7.4, 150 mM NaCl, 10% glycerol, 1 mM DTT; eluted overnight with 100 nM GST-HRV-3C; Coomassie gel

stoichiometry N: 1
Substance: mono-ubiquitinated human FANCI (ubiquitin on Lysine 523) (from UniProt Q9NVI1 1-1328; P0CG47 1-76) (natural protein)
